This note sets out measurements from patent US20130260436A1, “Methods of Identifying and Characterizing Natural Product Gene Clusters” (Victoria LInk Limited, priority 2010, published 2013).

Data set [1] in a line: BpsA coupled assay for PPTase kinetic parameters, CoA as variable substrate. The class given is biochemical. To be noted: BpsA fixed at 0.83 μM. From the text: Having established a linear relationship between concentration of holo-BpsA and the apparent rate of indigoidine synthesis in aqueous solution, we next wanted to test whether it was possible to evaluate PPTase activity by using acceleration of the rate of indigoidine synthesis as a measure of the rate of 4′-PP attachment to apo-BpsA. Replicate solutions containing PPTase and all of the substrates necessary for both phosphopantetheinylation and indigoidine synthesis were established using a twofold serial dilution series of CoA (0.024-50 μM) in ninety six well plates. Reactions were initiated by addition of 0.83 μM BpsA each well of a dilution series, and absorbance at 590 nm was measured continuously. Under these conditions, the pigment synthesis reaction undergoes an initial acceleration phase as apo-BpsA is converted to holo-BpsA by the PPTase. […]
A590 values were then recorded as previously described. […] A590 values were then recorded as previously described. For derivation of PPTase velocity values, the slope between every 2-8 data points was measured across the entire data range with the resulting values forming a new data set (BpsA velocity). The slope between every 2-8 points in the BpsA velocity data set was then determined using the slope function of Microsoft Excel and the maximum value from the resulting data set for each reaction taken as a measure of PPTase velocity. […]

The target in data set [2] is T1, BpsA (Streptomyces lavendulae, UniProt Q1MWN4).
T1 construct: 6His; made in house; host or cells: E. coli
Kind of data set: BpsA coupled assay for PPTase kinetic parameters, BpsA as variable substrate. The data set is classed as biochemical, S. lavendulae ATCC 11924. To be noted: CoA fixed at 25 μM. From the text: Having established a linear relationship between concentration of holo-BpsA and the apparent rate of indigoidine synthesis in aqueous solution, we next wanted to test whether it was possible to evaluate PPTase activity by using acceleration of the rate of indigoidine synthesis as a measure of the rate of 4′-PP attachment to apo-BpsA. […] Under these conditions, the pigment synthesis reaction undergoes an initial acceleration phase as apo-BpsA is converted to holo-BpsA by the PPTase. […]
A590 values were then recorded as previously described. […] A590 values were then recorded as previously described. For derivation of PPTase velocity values, the slope between every 2-8 data points was measured across the entire data range with the resulting values forming a new data set (BpsA velocity). The slope between every 2-8 points in the BpsA velocity data set was then determined using the slope function of Microsoft Excel and the maximum value from the resulting data set for each reaction taken as a measure of PPTase velocity. […] For fast reactions smaller increments could be used, however for slow reactions noise from plate reader noise became a significant factor in point to point variation and created artificial fluctuations in measured slopes if too few points were used in slope determination. […]

The test system of data set [3] is BpsA. Put plainly: Qualitative PPTase activity in vivo by co-expression with a BpsA reporter in E. coli. The data set is classed as cell-based, S. lavendulae ATCC 11924. Particulars: E. coli BL21(DE3), auto-induction agar plates. On the procedure: Single colonies of E. coli co-expressing BpsA and an activating PPTase were inoculated onto pigment production agar plate using a sterile pipette tip and incubated for 16 hours at 37° C. Protein expression was then induced by IPTG addition as described in Section 4.9.2 and the plate incubated for a further 24 h at room temperature (18-25° C.).
We constructed plasmids that allowed IPTG regulated co-expression of a candidate PPTase and BpsA in E. coli BL21(DE3). To enable IPTG regulated co-expression the BpsA gene of S. lavendulae ATCC 11924 was cloned into pCDFDUET-1 (Novagen) and three candidate PPTases into the (origin of replication compatible) vector pET28a(+). […] In contrast, if IPTG was absent from the medium viable co-transformed cells were recovered with good efficiency (not shown). […] In order to circumvent this problem we employed auto-induction agar plates, prepared by addition of 1.5% agar to Studier ZYP-5052 auto-induction medium (Studier 2005). Use of auto-induction agar plates allowed for both rapid growth and efficient induction of pigment production following extended incubation at room temperature.

Data set [4] in a line: BpsA indigoidine synthesis kinetics, L-Gln as variable substrate. The class given is biochemical. On the procedure: Analysis of BpsA reaction rate over a replicate two fold serial dilution series (0.78 μM-16 mM) of L-gln was conducted at both pH 7.8 (sodium phosphate) and 8.0 (Tris-Cl). […] As such the ΔA590 was expected to be directly proportional to the concentration of holo-BpsA present in a reaction. This assumption was experimentally verified by monitoring reaction velocity at ten different concentrations of holo-BpsA (360 nM-1.14 μM) at constant L-gln/ATP concentrations; as shown in FIG. 6C the relationship between enzyme concentration and velocity is linear within this range (R^2=0.989). Owing to the lack of an extinction co-efficient for indigoidine in water, coupled with formation of insoluble precipitate, we were unable to derive a kcat value for BpsA. We were however able to discern a reproducible maximum velocities which are expressed with the units ΔA590/s. These parameters were subsequently employed for the derivation of PPTase kinetics as outlined in section 4.11.
Pre-activation mix to bring about conversion of apo to holo BpsA contained 3.4 μM apo-BpsA, 0.25 μM PcpS, 10 mM MgCl2, 100 μM CoA and 50 mM buffer (sodium phosphate buffer pH 7.8 or Tris-Cl pH 8.0) and was incubated for 20 min at 30° C.
A590 measurements were then taken every 6-10 s for ten minutes using an envision EnSpire® microplate reader. The resulting data was visualized and velocities derived using the Slope function of Microsoft Excel®. Kinetic parameters were derived from velocity values using Graphpad Prism®. For examination of the relationship between BpsA concentration and reaction velocity, a triplicate two fold serial dilution series of pre-activated BpsA was established in a 96 wp in a final volume of 50 μL, 100 μl reaction mix without L-gln or ATP was then added to each well. […] A590 values were then recorded and data analysed as previously described.

The nature of data set [5]: BpsA indigoidine synthesis kinetics with respect to ATP (values used in PPTase unit conversion). The class given is biochemical. The text has this: The raw data input into SigmaPlot for derivation of kinetic parameters for the PPTases PcpS and PP1183 was maximum change in indigoidine (ind) synthesis reaction rate (change in gradient per second) vs. concentration of CoA present in the reaction. The Vmax values given by SigmaPlot therefore had the units “Change in gradient per second” The assumptions made and calculations used to convert this standard enzyme kinetics units are given below. […] As such the assumption can be made that reaction rate for this enzyme is directly proportional to the concentration of active enzyme according to the equation:
For the reactions used in derivation of kinetic parameters of PPTases, [BpsA]=[E]=1.64 uM. [S]=[ATP]=1 mM.

B1: Sfp: PPTase of B. subtilis subsp. spizizenii ATCC6633 (protein, UniProt P39135 1-224, looked up)
4'-phosphopantetheinyl …: MKIYGIYMDRPLSQEENERFMSFISPEKREKCRRFYHKEDAHRTLLGDVLVRSVISRQYQLDKSDIRFSTQEYGKPCIPDLPDAHFNISHSGRWVICAFDSQPIGIDIEKTKPISLEIAKRFFSKTEYSDLLAKDKDEQTDYFYHLWSMKESFIKQEGKGLSLPLDSFSVRLHQDGQVSIELPDSHSPCYIKTYEVDPGYKMAVCAAHPDFPEDITMVSYEELL
The Km is the substrate concentration at which the rate is half of its maximum. The kcat is the maximal rate divided by the concentration of active sites. Take B1: the Km in data set [1] amounted to 0.62 µM; with BpsA [2], 3.3 µM. Besides, the turnover number (kcat) was found to be 0.00213 ± 6.7e-05 s⁻¹ in data set [1] and 0.0357 ± 0.00067 s⁻¹ in the data set with BpsA [2]. Besides, in the data set with BpsA [3], the “Indigoidine production on co-expression with BpsA” value is given as “substantial production of indigoidine”.

B2: BpsA: single module NRPS protein of S. lavendulae ATCC11924 that converts L-glutamine into indigoidine; SEQ ID NO: 3 (protein, listed as Streptomyces lavendulae)
chain: MTLQETSVLEPTLQGTTTLPGLLAQRVAEHPEAIAVAYRDDKLTFRELASRSAALADYLEHLGVSADDCVGLFVEPSIDLMVGAWGILNAGAAYLPLSPEYPEDRLRYMIENSETKIILAQQRLVSRLRELAPKDVTIVTLRESEAFVRPEGTEAPAARSARPDTLAYVIYTSGSTGKPKGVMIEHRSIVNQLGWLRETYAIDRSKVILQKTPMSFDAAQWEILSPANGATVVMGAPGVYADPEGLIETIVKHNVTTLQCVPTLLQGLIDTEKFPECVSLQQIFSGGEALSRLLAIQTTQEMPGRALINVYGPTETTINSSSFPVDPADLDEGPQSISIGSPVHGTTYHILDKETLKPVGVGEIGELYIGGIQLARGYLHRDDLTAERFLEIELEEGAEPVRLYKTGDLGQWNNDGTVQFAGRADNQVKLRGYRVELDEISLAIENHDWVRNAAVIVKNDGRTGFQNLIACIELSEKEAALMDQGNHGSHHASKKSKLQVKAQLSNPGLRDDAELAARPAFDLEGAEPTPEQRARVFARKTYRFYEGGAVTQADLLGLLGATVTAGYSRKAADLAPAELGQILRWFGQYISEERLLPKYGYASPGALYATQMYFELEGVGGLKPGYYYYQPVRHQLVLISEREATGKATAQIHFIGKKSGIEPVYKNNILEVLEIETGHMVGLFEQILPAYGLDIHDRAYEPAVKDLLDVADEDYYLGTFELVPHAGARDDQAEVYVQTHGGKVAGLPEGQYRYENGELTRFSDDIVLKKHVIAINQSVYQAASFGISVYSRAEEEWLKYITLGKKLQHLMMNGLNLGFMSSGYSSKTGNPLPASRRMDAVLGANGVDSAPMYFFVGGRISDEQIGHEGMREDSVHMRGPAELIRDDLVSFLPDYMIPNRVVVFDRLPLSANGKIDVKALAASDQVNAELVERPFVAPRTETEKEIAAVWEKALRRENASVQDDFFESGGNSLIAVGLVRELNARLGVSLPLQSVLESPTIEKLARRLEREVAQESSRFVRLHAETGKARPVICWPGLGGYPMNLRSLAGEIGLGRSFYGVQSYGINEGETPYETITEMAKKDIEALKEIQPAGPYTLWGYSFGARVAFETAYQLEQAGEKVDNLFLIAPGSPKVRAENGKVWGREASFANRGYTTILFSVFTGTISGPDLDRCLETVTDEASFAEFISELKGIDVDLARRIISVVGQTYEFEYSFHELAERTLQAPISIFKAVGDDYSFLENSSGYSAEPPTVIDLDADHYSLLREDIGELVKHIRYLLGE
Consider B2, for which the Km in data set [4] (NaPh pH 7.8, ATP 2.5 mM) is 2430 µM; in data set [4] (Tris-Cl pH 8.0, ATP 2.5 mM) it was 3330 µM; in data set [5] (ATP as substrate), 11100 µM. Besides, the Vmax is listed as 1.8 +/− 0.03 (ΔA590 · S^−1 · μM^−1) × 10^−2 in data set [4] (NaPh pH 7.8, ATP 2.5 mM) and 6.5 +/− 0.1 (ΔA590 · S^−1 · μM^−1) × 10^−2 in data set [4] (Tris-Cl pH 8.0, ATP 2.5 mM). Also, the “Kcat (BpsA)” value in data set [5] (value used for unit conversion of PPTase kinetics) is 4.0223 s⁻¹.
